The values below come from PMC4358367, “Structural basis of diverse membrane target recognitions by ankyrins” (eLife, 2014).

For orientation: Kd means the concentration at which binding is half-saturated.

Where a chain is given by its changes, count along the chain named. Numbers in names are those of the source.

The target in assay [1] is T1, AnkG_repeats (24 ANK repeats of rat 190 kDa ankyrin-G, residues 38–855) (rat, UniProt O70511 38-855).
T1 construct: ankyrin-G (AnkG), rat, 190 kDa isoform used as template, ANK repeats, residues 38-855; also called AnkG ANK repeats; wild-type ANK repeats; source: E. coli BL21 (DE3), purified
T1 sequence (looked up): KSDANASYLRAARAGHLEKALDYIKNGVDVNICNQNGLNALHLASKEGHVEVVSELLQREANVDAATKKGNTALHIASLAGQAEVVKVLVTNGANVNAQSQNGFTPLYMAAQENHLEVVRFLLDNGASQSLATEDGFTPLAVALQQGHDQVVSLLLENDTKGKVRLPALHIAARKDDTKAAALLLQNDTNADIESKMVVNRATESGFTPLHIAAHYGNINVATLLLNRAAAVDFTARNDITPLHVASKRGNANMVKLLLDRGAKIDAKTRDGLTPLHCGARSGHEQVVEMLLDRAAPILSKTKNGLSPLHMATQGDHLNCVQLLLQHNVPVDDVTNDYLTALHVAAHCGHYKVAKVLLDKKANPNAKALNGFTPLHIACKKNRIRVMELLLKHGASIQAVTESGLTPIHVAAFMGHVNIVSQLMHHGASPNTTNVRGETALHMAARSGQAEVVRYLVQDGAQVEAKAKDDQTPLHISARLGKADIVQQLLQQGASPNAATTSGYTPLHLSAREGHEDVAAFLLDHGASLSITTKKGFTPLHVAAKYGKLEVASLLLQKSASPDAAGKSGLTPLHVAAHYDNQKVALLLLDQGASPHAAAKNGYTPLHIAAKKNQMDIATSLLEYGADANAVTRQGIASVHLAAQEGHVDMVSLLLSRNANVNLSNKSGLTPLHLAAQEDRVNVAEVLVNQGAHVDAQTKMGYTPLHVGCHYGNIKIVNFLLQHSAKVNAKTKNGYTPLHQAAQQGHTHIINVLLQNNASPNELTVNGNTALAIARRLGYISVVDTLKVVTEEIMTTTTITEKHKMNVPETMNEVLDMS
The assay is described as follows: ITC; VP-ITC at 25°C; 50 mM Tris pH 7.5, 100 mM NaCl, 1 mM EDTA, 1 mM DTT; binding partner (AS, Nav1.2 ABD proteins, neurofascin ABD; 200–300 µM) in the syringe, ANK repeats (20–30 µM) in the cell; one-site binding model. Conditions: both partners purified. (In ITC the heat of successive injections is recorded.)

Assay [2] concerns the target T2, AnkR_repeats (24 ANK repeats of ankyrin-R, residues 42–853) (mouse, UniProt Q02357-6 42-853).
T2 construct: ankyrin-R (AnkR), mouse, ANK repeats, residues 42-853, PCR amplified from a mouse muscle cDNA library; The thioredoxin-His6 tag was removed with HRV 3C protease 'when needed'; also called AnkR ANK repeats; source: E. coli BL21 (DE3), purified
T2 sequence (looked up): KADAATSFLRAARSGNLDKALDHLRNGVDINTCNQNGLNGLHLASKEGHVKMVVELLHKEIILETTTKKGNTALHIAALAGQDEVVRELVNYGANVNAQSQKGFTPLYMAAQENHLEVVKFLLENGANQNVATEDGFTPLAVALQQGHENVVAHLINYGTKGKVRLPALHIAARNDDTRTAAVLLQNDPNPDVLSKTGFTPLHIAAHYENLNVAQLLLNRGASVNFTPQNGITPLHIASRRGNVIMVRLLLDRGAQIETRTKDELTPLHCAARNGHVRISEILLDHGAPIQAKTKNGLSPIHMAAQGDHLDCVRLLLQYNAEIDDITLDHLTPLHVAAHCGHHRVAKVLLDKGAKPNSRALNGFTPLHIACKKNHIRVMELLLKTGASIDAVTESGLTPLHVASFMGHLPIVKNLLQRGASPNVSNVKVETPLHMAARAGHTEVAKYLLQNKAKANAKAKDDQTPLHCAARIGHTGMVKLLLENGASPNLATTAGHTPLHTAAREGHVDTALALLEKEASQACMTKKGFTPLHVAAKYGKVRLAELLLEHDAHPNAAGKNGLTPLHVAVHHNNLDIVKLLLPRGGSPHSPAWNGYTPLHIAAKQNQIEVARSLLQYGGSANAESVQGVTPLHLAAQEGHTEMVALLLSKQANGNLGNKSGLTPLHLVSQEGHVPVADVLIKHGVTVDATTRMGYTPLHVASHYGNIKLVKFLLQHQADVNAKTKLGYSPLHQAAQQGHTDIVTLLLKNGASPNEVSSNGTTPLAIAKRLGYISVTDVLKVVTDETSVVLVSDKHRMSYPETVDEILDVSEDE
The assay is described as above. As to conditions: both partners purified.

Assay [3] concerns the target T3, AnkB_repeats (24 ANK repeats of human 220 kDa ankyrin-B, residues 28–873) (human, UniProt Q01484 28-873).
T3 construct: ankyrin-B (AnkB), human, 220 kDa isoform used as template, ANK repeats, residues 28-873; source: E. coli BL21 (DE3), purified
T3 sequence (looked up): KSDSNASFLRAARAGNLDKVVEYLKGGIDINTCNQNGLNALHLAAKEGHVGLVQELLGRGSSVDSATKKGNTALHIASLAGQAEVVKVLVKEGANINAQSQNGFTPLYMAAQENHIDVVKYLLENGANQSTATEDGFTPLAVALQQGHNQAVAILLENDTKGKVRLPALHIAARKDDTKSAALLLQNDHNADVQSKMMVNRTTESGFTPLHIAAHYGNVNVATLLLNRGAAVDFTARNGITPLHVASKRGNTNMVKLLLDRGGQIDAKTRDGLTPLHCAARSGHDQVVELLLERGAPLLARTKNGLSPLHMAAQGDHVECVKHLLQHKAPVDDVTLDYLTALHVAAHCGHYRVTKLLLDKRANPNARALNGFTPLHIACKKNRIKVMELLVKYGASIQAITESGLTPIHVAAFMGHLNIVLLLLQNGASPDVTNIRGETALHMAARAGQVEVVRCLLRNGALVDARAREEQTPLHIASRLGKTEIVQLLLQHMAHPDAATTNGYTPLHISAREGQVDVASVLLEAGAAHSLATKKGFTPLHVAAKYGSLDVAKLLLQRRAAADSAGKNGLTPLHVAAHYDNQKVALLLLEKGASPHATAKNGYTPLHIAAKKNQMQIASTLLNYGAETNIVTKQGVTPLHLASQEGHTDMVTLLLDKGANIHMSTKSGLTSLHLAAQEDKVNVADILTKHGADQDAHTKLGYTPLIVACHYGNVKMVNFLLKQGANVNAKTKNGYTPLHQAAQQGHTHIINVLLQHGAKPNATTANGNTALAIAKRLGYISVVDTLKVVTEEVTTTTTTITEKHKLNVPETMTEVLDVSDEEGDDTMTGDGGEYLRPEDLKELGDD
The description is as above. As to conditions: both partners purified.

The target of assay [4] is T4, AnkG_repeats (24 ANK repeats of rat 190 kDa ankyrin-G, residues 38–855) (rat, UniProt O70511 38-855).
T4 chain: T1 sequence (looked up)
The assay is described as follows: ITC.

For assay [5], the target named is T5, AnkB_repeats_R1–9 (first nine ANK repeats of AnkB, residues 28–318, followed by the capping sequence 814–822) (human, UniProt Q01484 28-318; Q01484 814-822).
T5 chain: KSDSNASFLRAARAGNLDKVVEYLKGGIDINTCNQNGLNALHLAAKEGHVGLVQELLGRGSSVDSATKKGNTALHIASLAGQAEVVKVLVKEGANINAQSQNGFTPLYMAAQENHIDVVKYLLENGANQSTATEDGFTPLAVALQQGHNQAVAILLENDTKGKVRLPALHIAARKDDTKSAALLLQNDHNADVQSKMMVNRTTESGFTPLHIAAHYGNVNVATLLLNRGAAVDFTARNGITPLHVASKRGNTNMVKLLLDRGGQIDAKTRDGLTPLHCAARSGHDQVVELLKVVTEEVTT
Kind of assay: ITC.

Assay [6] concerns the target T6, AnkG ANK repeats R1–6 (truncation of AnkG_repeats with C-terminal capping sequence) (rat | human).
T6 chain: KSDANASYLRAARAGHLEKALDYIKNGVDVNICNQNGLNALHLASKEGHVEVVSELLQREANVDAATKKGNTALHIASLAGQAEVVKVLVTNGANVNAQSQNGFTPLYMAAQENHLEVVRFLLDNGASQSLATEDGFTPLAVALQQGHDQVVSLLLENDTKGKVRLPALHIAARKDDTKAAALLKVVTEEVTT
Kind of assay: ITC.

In another assay the target is T7, AnkB R1-14 (Homo sapiens).
T7 chain: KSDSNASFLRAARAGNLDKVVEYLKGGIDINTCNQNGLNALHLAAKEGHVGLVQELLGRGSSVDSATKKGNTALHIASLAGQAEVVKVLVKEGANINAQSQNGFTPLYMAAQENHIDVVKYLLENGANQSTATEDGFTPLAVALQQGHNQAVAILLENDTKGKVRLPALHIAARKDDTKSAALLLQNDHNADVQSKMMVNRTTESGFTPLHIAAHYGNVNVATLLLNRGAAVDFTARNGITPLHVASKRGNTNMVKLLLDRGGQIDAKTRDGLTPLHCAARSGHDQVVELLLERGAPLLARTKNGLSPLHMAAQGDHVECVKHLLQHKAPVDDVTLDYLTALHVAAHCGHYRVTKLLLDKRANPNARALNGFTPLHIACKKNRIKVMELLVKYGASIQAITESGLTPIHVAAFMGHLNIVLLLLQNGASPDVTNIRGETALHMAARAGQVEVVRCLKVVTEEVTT
The assay is described as follows: ITC.

Assay [7] addresses T4, AnkG_repeats (24 ANK repeats of rat 190 …). The assay is described as follows: ITC.

B1: Nav1.2 ABD-N (N-terminal 68-residue fragment of loop 2, residues 1035–1102) (domain or fragment)
chain: KALDEIKPLEDLNNKKDSCISNHTTIEIGKDLNYLKDGNGTTSGIGSSVEKYVVDESDYMSFINNPSL
As for B1, the Kd in assay [1] was around 8000 nM.

B2: AnkR entire C-terminal regulatory domain (residues 1529–1907) (domain or fragment, mouse, UniProt Q02357-6 1529-1907, looked up)
chain: RQSRNLKPERRHGDREYSLSPSQVNGYSSLQDELLSPASLQYALPSPLCADQYWNEVTVIDAIPLAATEHDTMLEMSDMQVWSAGLTPSLVTAEDSSLECSKAEDSDAIPEWKLEGAHSEDTQGPELGSQDLVEDDTVDSDATNGLADLLGQEEGQRSEKKRQEVSGTEQDTETEVSLVSGQQRVHARITDSPSVRQVLDRSQARTLDWDKQGSTAVHPQEATQSSWQEEVTQGPHSFQRRITTIQGPEPGALQEYEQVLVSTREHVQRGPPETGSPKAGKEPSLWAPESAFSQEVQGDELQNIPGEQVTEEQFTDEQGNIVTKKIIRKVVRQVDSSGAIDTQQHEEVELRGSGLQPDLIEGRKGAQIVKRASLKRGKQ
notes: also called full length AnkR C-terminal domain; C-terminal tail of AnkR; source: E. coli BL21 (DE3), purified
Take B2: in assay [2], the equilibrium dissociation constant (Kd) is around 1000 nM.

B3: AnkR_AS (48-residue auto-inhibitory segment of AnkR, residues 1577–1624) (domain or fragment, mouse, UniProt Q02357-6 1577-1624, looked up)
chain: CADQYWNEVTVIDAIPLAATEHDTMLEMSDMQVWSAGLTPSLVTAEDS
notes: Free AS in ITC; source: E. coli BL21 (DE3), purified
Regarding B3, the equilibrium dissociation constant (Kd) in assay [3] was found to be 400 nM; in assay [4], 460 nM.

B4: Nav1.2_ABD (ankyrin binding domain of Nav1.2, residues 1035–1129) (domain or fragment)
chain: KALDEIKPLEDLNNKKDSCISNHTTIEIGKDLNYLKDGNGTTSGIGSSVEKYVVDESDYMSFINNPSLTVTVPIAVGESDFENLNTEEFSSESDM
Turning to B4, the results for the equilibrium dissociation constant (Kd) (in assay [5]; in assay [6]; with AnkB R1-14) were 3500 nM, 2300 nM and 290 nM, respectively.

B5: E1112K-Nav1.2 (ABD with the charge reversal mutation E1112K) (domain or fragment)
chain: B4 chain with E78K
Turning to B5, in assay [7], the dissociation constant (Kd) was above 50000 nM.
